Kd, koff and kon data for two substances are collected here from paper PMC4095729.

The experiment deals with biotinylated DAE10 peptide (Aβ1-10 conjugated to biotin at the carboxy-terminus). In words: SPR; BIAcore; biotinylated DAE10 peptide (Aβ1-10) immobilised on streptavidin coated chips at low density (4 to 7 RU); whole antibodies injected in triplicate at 100 nM, 30 μl/minute; apparent rate constants, bivalent model, KD corrected for active concentration of antibody. For orientation: In SPR one partner is held on a chip, and binding of the other changes the refractive index at the surface.

Broadly, the koff is the rate constant with which the complex falls apart. The kon is the second-order rate constant of association. Take Murine 3D6 (whole antibody, IgG2b): the Kd is 1.2 nM, the koff stood at 0.000412 s⁻¹ and the kon was found to be 361000 M⁻¹ s⁻¹.

With “Recombinant chimeric 3D6 (IgG1) (antibody)”, the Kd was 1.8 nM, the koff amounted to 0.000589 s⁻¹ and the kon was 343000 M⁻¹ s⁻¹.
